Columns and labels:
[1] = target: human thyroid stimulating hormone receptor (TSHR), full length (human) (UniProt P16473); test: 125I-K1-70 Fab (competitor) binding to TSHR coated tubes; negative control MAb 0.001 µg/mL in HBD serum
[2] = target: TSH receptor (TSHR) coated on tubes (human) (UniProt P16473); test: inhibition of 125I-K1-70 IgG binding to TSHR coated tubes; negative control 10 µg/mL in HBD serum pool
[3] = target: TSHR (thyroid stimulating hormone receptor), full length human (human) (UniProt P16473); test: negative control; competitor ^125I-K1-70 IgG, TSHR coated tubes; 1 µg/mL in assay buffer
[4] = target: human thyroid stimulating hormone receptor (TSHR), full length (human) (UniProt P16473); test: 125I-K1-70 Fab (competitor) binding to TSHR coated tubes; negative control MAb 0.1 µg/mL in assay buffer
[5] = target: TSHR (full length) coated on tubes (human) (UniProt P16473); test: inhibition of 125I-K1-18 Fab (competitor) binding to TSHR coated tubes; negative control 0.01 µg/mL in assay buffer
[6] = target: human TSH receptor (full length) coated on ELISA plate wells (human) (UniProt P16473); test: TSH-biotin binding inhibition ELISA, TSHR coated wells; 100 µg/mL in assay buffer + 100 µg/mL 5B3 IgG; negative control MAb
[7] = target: TSHR (thyroid stimulating hormone receptor), full length human (human) (UniProt P16473); test: negative control; competitor ^125I-K1-70 IgG, TSHR coated tubes; 10 µg/mL in HBD
[8] = target: human thyroid stimulating hormone receptor (TSHR), full length (human) (UniProt P16473); test: 125I-K1-70 Fab (competitor) binding to TSHR coated tubes; negative control MAb 10 µg/mL in assay buffer
[9] = target: TSHR (thyroid stimulating hormone receptor), full length human (human) (UniProt P16473); test: competitor ^125I-K1-70 IgG, TSHR coated tubes; 0.01 µg/mL in HBD
[10] = target: TSHR (full length) coated on tubes (human) (UniProt P16473); test: inhibition of 125I-K1-18 Fab (competitor) binding to TSHR coated tubes; test sample 10 µg/mL in HBD serum
[11] = target: TSHR (thyroid stimulating hormone receptor), full length human (human) (UniProt P16473); test: competitor ^125I-K1-70 IgG, TSHR coated tubes; 10 µg/mL in assay buffer
[12] = target: TSHR (full length) coated on tubes (human) (UniProt P16473); test: inhibition of 125I-K1-18 Fab (competitor) binding to TSHR coated tubes; test sample 10 µg/mL in assay buffer
[13] = target: TSHR (full length) coated on tubes (human) (UniProt P16473); test: inhibition of 125I-K1-18 Fab (competitor) binding to TSHR coated tubes; test sample 0.1 µg/mL in assay buffer
[14] = target: TSHR (thyroid stimulating hormone receptor), full length human (human) (UniProt P16473); test: competitor ^125I-K1-70 IgG, TSHR coated tubes; 1 µg/mL in HBD
[15] = target: TSHR (thyroid stimulating hormone receptor), full length human (human) (UniProt P16473); test: competitor ^125I-K1-70 IgG, TSHR coated tubes; 100 µg/mL in assay buffer
[16] = target: TSHR (thyroid stimulating hormone receptor), full length human (human) (UniProt P16473); test: competitor ^125I-K1-70 IgG, TSHR coated tubes; 10 µg/mL in HBD
[17] = target: TSH receptor (full length human TSHR) coated on tubes (human) (UniProt P16473); test: 125I-TSH binding inhibition read against NIBSC 90/672; mean over 10, 30 and 100 ng/mL, in serum
[18] = target: TSH receptor (full length human TSHR) coated on tubes (human) (UniProt P16473); test: 125I-TSH binding inhibition, TSHR coated tubes; 10 ng/mL, in assay buffer
[19] = target: TSH receptor (TSHR) coated on tubes (human) (UniProt P16473); test: inhibition of 125I-K1-70 IgG binding to TSHR coated tubes; sample 100 µg/mL in HBD serum pool
[20] = target: thyroid stimulating hormone receptor (full length human TSHR) (human) (UniProt P16473); test: ELISA, inhibition of TSH-biotin binding to TSHR coated wells; 0.01 µg/mL, diluted in assay buffer
[21] = target: TSH receptor (TSHR), full length human, coated on tubes (human) (UniProt P16473); test: inhibition of 125I-K1-18 IgG (competitor) binding to TSHR coated tubes; test sample at 0.1 µg/mL in HBD serum pool
[22] = target: TSH receptor (TSHR), full length human, coated on tubes (human) (UniProt P16473); test: inhibition of 125I-K1-18 IgG (competitor) binding to TSHR coated tubes; test sample at 100 µg/mL in HBD serum pool
[23] = target: TSH receptor (TSHR), full length human, coated on tubes (human) (UniProt P16473); test: inhibition of 125I-TSH binding to TSHR coated tubes; 0.1 µg/mL, diluted in HBD serum pool
[24] = target: TSH receptor (TSHR) coated on tubes (human) (UniProt P16473); test: inhibition of 125I-K1-70 IgG binding to TSHR coated tubes; sample 1 µg/mL in assay buffer
[25] = target: thyroid stimulating hormone receptor (full length human TSHR) (human) (UniProt P16473); test: ELISA, inhibition of TSH-biotin binding to TSHR coated wells; 1 µg/mL, diluted in HBD serum pool
[26] = target: TSH receptor (TSHR), full length human, coated on tubes (human) (UniProt P16473); test: inhibition of 125I-K1-18 IgG (competitor) binding to TSHR coated tubes; test sample at 10 µg/mL in HBD serum pool
[27] = target: human thyroid stimulating hormone receptor (TSHR), full length (human) (UniProt P16473); test: 125I-K1-18 Fab competition, TSHR coated tubes; 0.01 µg/mL in HBD
[28] = target: TSH receptor (TSHR), full length human, coated on tubes (human) (UniProt P16473); test: inhibition of 125I-K1-18 IgG (competitor) binding to TSHR coated tubes; test sample at 100 µg/mL in assay buffer

With 5B3 IgG (antibody) the Inhibition of binding (%) [1] was -12.1%, the Inhibition of binding (%) [2] was -0.7% and the Inhibition of binding (%) [3] was 4.2%. It also gave an Inhibition of binding (%) [4] of 2.2%, an Inhibition of binding (%) [5] of 0% and a % inhibition of TSH-biotin binding [6] of 1.1%. It also gave an Inhibition of binding (%) [7] of -1.5% and an Inhibition of binding (%) [8] of -2.1%.

With 9D33 IgG (antibody) the Inhibition of binding (%) [9] was 0.6%, the Inhibition of binding (%) [10] was 73.9% and the Inhibition of binding (%) [11] was 41.7%. The Inhibition of binding (%) [12] was 69.5%, the Inhibition of binding (%) [13] was 48.6% and the Inhibition of binding (%) [14] was 40.5%. It also gave an Inhibition of binding (%) [15] of 61.4% and an Inhibition of binding (%) [16] of 48%.

For M22 IgG (antibody), the mean units/mg [17] was 131 units/mg and the Inhibition of binding (%) [18] was 26.4%.

B1: 5C9 IgG (antibody, from another filing, V domains shown)
VH: EVQLVESGGGLIQPGGSLRLSCAASGFTVSSNYMSWVRQAPGKGLEWVSVTYSGGSTSYADSVKGRFTISRDNSKNTLYLQMNSLRAEDTAVYYCARGGRYCSSISCYARSGCDYWGQGTLVTVSS
VL: AIQMTQSPSSLSASVGDRVTITCRASQSISNYLNWYQQKPGKAPKLLIYAASSLQSGVPSRFSGSGSGTDFTLTISSLQPEDFATYYCQQSYSSPSTTFGQGTKLEIK
B1 gave an Inhibition of binding (%) [19] of 68.5%, an Inhibition of binding (%) [20] of 7.5% and an Inhibition of binding (%) [21] of 21.3%. For the same molecule, the Inhibition of binding (%) [22] was 57.7%, the Inhibition of binding (%) [23] was 7% and the Inhibition of binding (%) [24] was 56.4%. The Inhibition of binding (%) [25] was 28.5%, the Inhibition of binding (%) [26] was 46.7% and the Inhibition of binding (%) [27] was 5.7%. It also gave an Inhibition of binding (%) [28] of 91.3%.

Source: patent US20110300138A1 (published 2011)
